# T1: VPAC1 receptor (human, UniProt P32241 31-457)
# T1 sequence (looked up): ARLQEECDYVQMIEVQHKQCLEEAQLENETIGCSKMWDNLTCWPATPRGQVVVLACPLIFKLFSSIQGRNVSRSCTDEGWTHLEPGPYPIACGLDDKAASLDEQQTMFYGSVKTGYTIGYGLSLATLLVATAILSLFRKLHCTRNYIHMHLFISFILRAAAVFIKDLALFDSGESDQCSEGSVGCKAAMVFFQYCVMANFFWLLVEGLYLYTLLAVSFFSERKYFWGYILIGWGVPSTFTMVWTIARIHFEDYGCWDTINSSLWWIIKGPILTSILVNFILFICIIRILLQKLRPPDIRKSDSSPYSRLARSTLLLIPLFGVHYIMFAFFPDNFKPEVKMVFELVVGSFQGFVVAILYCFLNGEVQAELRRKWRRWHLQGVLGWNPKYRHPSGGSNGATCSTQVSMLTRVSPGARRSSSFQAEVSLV
# B1: VIP-BH3 BID fusion protein (other)
# chain: MHSDAVFTDNYTRLRKQMAVKKYLNSILNGSSLLIARRMPNFNEDIIRNIARHLAQVGDSMDRLEHHHHHH
# Biological target: T1, VPAC1 receptor
# Assay: cell-based or functional assay
binder,measurement,value
B1,"IC50, cytotoxicity on A549 cells (MTT assay, 24 h)",~5 µM
same,"IC50, cytotoxicity on HT29 cells (MTT assay, 24 h)",~15 µM

# From patent publication US20100184651A1 (DABUR PHARMA, published 2010)
